# Laboratory results: the supplement of paper PMC10266784
# B1: library; numbered along this chain (parent)
# chain: MAAAAAAAAEQQSSNGPVKKSMREKAVERRSVNKEHNSNFKAGYIPIDEDRLHKTGLRGRKGNLAICVIILLFILAVINLIITLVIWAVIRIGPNGCDSMEFHESGLLRFKQVSDMGVIHPLYKSTVGGRRNENLVITGNNQPIVFQQGTTKLSVENNKTSITSDIGMQFFDPRTQNILFSTDYETHEFHLPSGVKSLNVQKASTERITSNATSDLNIKVDGRAIVRGNEGVFIMGKTIEFHMGGNMELKAENSIILNGSVMVSTTRLPSSSSGDQLGSGDWVRYKLCMCADGTLFKVQVTSQNMGCQISDNPCGNTH
# Variants of: B1
# Assay: SGCB cell-surface expression functional score (HA stain, bin4 vs bin1, normalised to synonymous) (log10 ratio); higher = more cell-surface SGCB (functional)
# How it was run: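 Codon-saturation libraries of HA-tagged, YFP-fused human beta-sarcoglycan were lentivirally transduced at MOI <0.1 into HEK293 cells stably expressing alpha-, gamma- and delta-sarcoglycan. YFP-positive cells were sorted after 72 hours, grown 5–7 days, stained on ice with Alexa Fluor 647 anti-HA, fixed, sorted into four 5% intensity bins and amplicon-sequenced. The functional score is the log ratio of highest-bin to lowest-bin variant frequency, taken as the median over codons and duplicate transductions. Synonymous variants were scaled per section to mean 0, SD 0.5.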
row,Variant,SGCB cell-surface expression functional score (log10)
1,E104M,0.11
2,E104I,0.01
3,E104D,0.17
4,E104T,0.51
5,E104P,0.47
6,E104H,0.28
7,E104Y,0.03
8,E104Q,0.18
9,E104R,0.26
10,E104W,-0.09
11,E104G,-0.1
12,E104A,0.22
13,E104F,-0.24
14,E104L,-0.18
15,E104K,0.13
16,E104C,0.35
17,E104S,0.39
18,E104N,-0.11
19,E104V,0
20,F102N,-1.53
21,F102H,0.01
22,F102C,-1.3
23,F102K,-1.02
24,F102P,-1.4

row,Variant,SGCB cell-surface expression functional score (log10)
1,F102Q,-1.39
2,F102A,-1.01
3,F102I,-1.26
4,F102R,-1.14
5,F102Y,-1.16
6,F102S,-1.18
7,F102V,-1.57
8,F102G,-0.51
9,F102E,-1.93
10,F102W,-0.12
11,F102L,-0.5
12,F102T,-1.16
13,F102M,-0.45
14,F102D,-0.88
15,M100Y,-2.14
16,M100S,-2.02
17,M100T,-1.55
18,M100W,-1.82
19,M100V,-0.03
20,L107I,0.27
21,L107A,-0.67
22,L107F,-0.29
23,L107N,-0.13
24,L107M,0.24

row,Variant,SGCB cell-surface expression functional score (log10)
1,L107C,0.24
2,L107Y,-0.27
3,L107K,-0.53
4,L107S,-0.46
5,L107Q,0
6,L107T,-0.34
7,L107R,-0.36
8,L107E,-1.14
9,L107H,-0.67
10,L107G,-0.26
11,L107V,-0.21
12,L107D,-0.74
13,L107P,-0.47
14,L107W,-0.39
15,E101C,-1.14
16,E101A,-0.15
17,E101M,-0.63
18,E101R,-0.59
19,E101P,-1.78
20,E101S,-0.39
21,E101N,-1.22
22,E101G,-0.26
23,E101L,-0.35
24,E101I,-0.3

row,Variant,SGCB cell-surface expression functional score (log10)
1,E101D,-0.49
2,E101H,-1.14
3,E101V,-0.43
4,E101W,-1.04
5,E101K,-0.77
6,E101Y,-0.43
7,E101T,-0.54
8,E101Q,-0.15
9,E101F,-0.8
10,L108A,-0.07
11,L108N,-2.59
12,L108S,-0.5
13,L108G,-0.9
14,L108P,-1.13
15,L108E,-1.58
16,L108R,-1.09
17,L108W,-0.215
18,L108H,-0.95
19,L108Y,-1.74
20,L108I,0.03
21,L108C,0.01
22,L108T,0
23,L108Q,-1.27
24,L108V,-0.08

row,Variant,SGCB cell-surface expression functional score (log10)
1,L108M,0.07
2,L108K,-1.85
3,L108F,-1.87
4,L108D,-1.53
5,S105G,-0.15
6,S105I,-0.75
7,S105K,-0.5
8,S105Y,0.11
9,S105N,-0.63
10,S105P,-1.03
11,S105R,-0.4
12,S105H,0
13,S105Q,-0.11
14,S105V,-0.62
15,S105W,0.26
16,S105C,-0.21
17,S105F,-0.75
18,S105T,-0.09
19,S105L,-0.66
20,S105D,0.04
21,S105M,-0.33
22,S105E,-0.29
23,S105A,-0.09
24,H103T,0.65

row,Variant,SGCB cell-surface expression functional score (log10)
1,H103V,0.29
2,H103F,-0.14
3,H103D,0
4,H103M,-0.23
5,H103N,0.13
6,H103R,0.14
7,H103C,-0.1
8,H103Y,-0.3
9,H103I,-0.36
10,H103K,-0.02
11,H103Q,0.36
12,H103A,0.32
13,H103L,0.33
14,H103S,0.06
15,H103G,0.07
16,H103E,-0.33
17,H103W,0.06
18,H103P,-0.42
19,G106Q,-1.48
20,G106E,-0.58
21,G106I,-1.82
22,G106C,-1.9
23,G106P,-1.85
24,G106K,-0.63

row,Variant,SGCB cell-surface expression functional score (log10)
1,G106R,-0.35
2,G106D,-0.65
3,G106T,-0.86
4,G106H,-0.43
5,G106W,-0.87
6,G106V,-1.47
7,G106L,-1.62
8,G106A,-0.24
9,G106Y,-1.15
10,G106F,-1.86
11,G106S,-0.78
12,G106N,-0.38
13,G106M,-0.94
14,R109C,-0.5
15,R109L,-0.1
16,R109I,-0.04
17,R109F,-0.2
18,R109K,-0.59
19,R109E,-0.02
20,R109D,-0.93
21,R109H,-0.61
22,R109G,-0.81
23,R109A,-0.33
